The target of assay [1] is hTSLPR-Ig fusion (human) (UniProt Q9HC73). Put plainly: SPR BIAcore T100, huTSLPR-hIg amine-coupled on CM5, antibody as analyte, bivalent analyte model, n = 2.
A further assay concerns the target hTSLPR-ECTO-His (human). Nature of the assay: ELISA, plate coated with TSLPR 50 ng/well, HRP goat anti-mouse detection. Background: In an ELISA, binding on a coated surface is turned into a signal by an enzyme label.
Assay [2] has as its target hTSLPR-Ig fusion (human) (UniProt Q9HC73). Put plainly: SPR BIAcore T100, huTSLPR-hIg amine-coupled on CM5, antibody as analyte, bivalent analyte model, n = 6. A general note: Surface plasmon resonance follows binding to a sensor surface in real time, without labels.

Sequence of hTSLPR-Ig fusion (human) (Q9HC73 23-231): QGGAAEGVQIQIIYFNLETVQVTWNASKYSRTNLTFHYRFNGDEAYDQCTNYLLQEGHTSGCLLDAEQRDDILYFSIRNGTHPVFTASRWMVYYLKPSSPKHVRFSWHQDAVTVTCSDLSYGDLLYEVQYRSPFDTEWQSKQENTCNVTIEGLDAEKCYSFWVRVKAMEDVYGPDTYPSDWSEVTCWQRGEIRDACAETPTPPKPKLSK

B1: rat anti-human TSLPR antibody 18B3 (antibody, V domains shown)
VH: EVQLVESGGGLVQPGRSLRLSCVASGFTFNNYWMTWVRQAPGKGLEWVASITDTSGRTYYPDSVKGRFTISRDHAKSTLYLQMNSLRPEDTATYYCTKTLGGIPRDWGQGVMVTVSS
VL: NIQLTQSPSLLSASVGDRVTLSCKGSQNINNYLAWYQQKLGEAPKLLIFKTNILQTGIPLRFSGSGSGTDYTLTISSLHCEDLATYYCYQFNNGFTFGPGTKLELKR
In the assay with hTSLPR-Ig fusion (human) [1], B1 came in with a Kd of 0.008 nM, a koff of 1.5e-05 s⁻¹ and a kon of 1.81e+06 M⁻¹ s⁻¹.

B2: mouse anti-human TSLPR antibody 70E8 (antibody, mouse IgG1, V domains shown)
VH: DVQLQESGPDLVKPSQSLSLTCTVTNYSITSGYSWPWIRQFPGNKLEWLGYIHSSGRTNYNPSLKSRISITRDTSKNQFFLQLNSVTPEDTATYYCARSQLGLVFFAYWGQGTLVTVSA
VL: DIVMTQSQKFMSTSVGDRVSVTCKASQSVGANVAWYQQIPGHSPKVLIYSASYRFSGVPDRFTGSGSGTDFTLTISNVQSEDLAEYFCQQYNSYPYTFGGGTKLEIRR
In the assay with hTSLPR-Ig fusion (human) [1], B2 had a Kd of 0.079 nM, a koff of 0.00012 s⁻¹ and an on-rate (kon) of 1.52e+06 M⁻¹ s⁻¹. The same molecule returned an EC50 with hTSLPR-ECTO-His (human) of 0.0162 µg/mL.

B3: chimeric anti-human TSLPR 13H5 antibody (antibody, V domains shown, not shown: a dimerising Fc or GST)
VH: QVLLKQSGPSLVQPSQSLSITCTVSGFSLSRYGVHWVRQSPGKGLEWLGVIWRSGSTDYNAAFMSRLSITQDNSKSQVFFNMNSLQSDDSAIYYCAKKAFYVMDYWGQGTSVTVSS
VL: DIQMTQTTSSLSASLGDRVTISCRASQDISIYLNWYQQKPDGTVKLLIYYTSRLHSGVPSRFSGSGSGTNFSLTITNLEEEDIATYFCQQGNTLPWTFGGGTKLEIKR
In the case of B3, in the assay with hTSLPR-Ig fusion (human) [1], the Kd was found to be 0.102 nM, the koff is 0.000136 s⁻¹ and the association rate constant (kon) amounted to 1.34e+06 M⁻¹ s⁻¹.

B4: mouse anti human TSLPR antibody 13H5 (antibody, mouse IgG1, V domains shown)
VH: B3 VH
VL: B3 VL
Consider B4, for which, in the assay with hTSLPR-ECTO-His (human), the half-maximal effective concentration (EC50) is 0.0106 µg/mL. For the same molecule, in the assay with hTSLPR-Ig fusion (human) [2], the Kd was 0.037 nM, the koff was 7.8e-05 s⁻¹ and the kon worked out at 2.12e+06 M⁻¹ s⁻¹.

Broadly, the koff is a measure of how fast the partners let go of each other. Lower therefore signals slow dissociation. One may read the kon as a measure of how fast the partners come together. A high value points to faster complex formation. The EC50 is the concentration at which the effect is half-maximal. Low readings indicate higher potency in that assay, high ones lower potency in that assay.

Source of the values: US20110020369A1.
